Test results published in US20120277286A1, “COMPOSITIONS AND METHODS FOR THE TREATMENT OR PREVENTION OF MITOCHONDRIAL DISEASES” (The Government of the USA, as represented by the Secretary, …, priority 2009, published 2012).

Columns and labels:
[1] = system: PINK1+/+ or PINK1−/− MEFs; test: YFP-Parkin recruitment to mitochondria in MEFs; assay type: cell-based, mouse; details: for Parkin recruited to mitochondria, % of cells: CCCP
Source text: (§1) HeLa YFP-Parkin, PINK1+/+ SV40 transformed MEFs cells, PINK1−/− SV40 transformed MEF, M17 neuroblastoma control shRNA, M17 neuroblastoma PINK1, and Mfn1/2−/− MEF cell lines have been described previously (Narendra (2008) J Cell Biol 183: 795-803). PINK1+/+ and PINK1−/− primary MEFs were isolated from embryos using a standard protocol (Gautier (2008) Proc Natl Acad Sci USA 105: 11364-11369). Parkin+/+ and Parkin−/− transformed MEFs were created by isolation of primary cells from embryos of B6.129S4-Park2tm1Shn/J mice (Jackson Labs), using a standard protocol (Gautier (2008) Proc Natl Acad Sci USA 105: 11364-11369), followed by retroviral transduction of SV40 (Applied Biological Materials, Inc.). YFP-Parkin, YFPParkin mutants, mCherry-Parkin, PINK1-YFP, PINK1 KD-YFP, PINK1 Δ1-110-YFP, and Opa3-PINK1 Δ1-110-YFP are in C1 or N1 Clontech vectors. PINK1WT-V5, PINK1 KD-V5, and PINK1 Δ1-156-V5 are in pDest40 vector (Invitrogen). PINK1 patient mutations are in pLenti-V5 vector (Invitrogen). PINK1-myc is in a pCMBTNT vector (Promega).
(§2) Confocal microscopy of fixed samples, scoring of Parkin recruitment and Parkininduced mitophagy, and live cell imaging were performed as described previously (Narendra (2008) J Cell Biol 183: 795-803). Experiments in Mfn1/2 null cells were performed as described previously with minor modifications.
HeLa YFP-Parkin, E18 Rat cortical neurons, PINK1^+/+ SV40 transformed MEFs cells, PINK1^−/− SV40 transformed MEF, M17 neuroblastoma control shRNA, M17 neuroblastoma PINK1, Mfn1/2^−/− MEF, and Parl^−/− MEF cell lines have been described previously (Narendra (2008) J Cell Biol 183: 795-803). PINK1^+/+ and PINK1^−/− primary MEFs were isolated from embryos using a standard protocol (Gautier (2008) Proc Natl Acad Sci USA 105: 11364-11369). Parkin^+/+ and Parkin^−/− transformed MEFs were created by isolation of primary cells from embryos of B6.129S4-Park2^tm1Shn/J mice (Jackson Labs), using a standard protocol (Gautier (2008) Proc Natl Acad Sci USA 105: 11364-11369), followed by retroviral transduction of SV40 (Applied Biological Materials, Inc.). YFP-Parkin, YFP-Parkin mutants, mCherry-Parkin, PINK1-YFP, PINK1 KD-YFP, PINK1 Δ1-110-YFP, and Opa3-PINK1 Δ1-110-YFP are in C1 or N1 Clontech vectors. PINK1WT-V5, PINK1 KD-V5, and PINK1 Δ1-156-V5 are in pDest40 vector (Invitrogen). PINK1 patient mutations are in the pLenti-V5 vector (Invitrogen). PINK1-myc is in a pCMBTNT vector (Promega). The PARL shRNA construct targeting (5′ […] 3′) is in the pSuper-GFP vector. To make FRB-PINK1 (111-581)-YFP and Tom20 (1-33)-FKBP, PCR fragments containing PINK1 (111-581)-YFP and Tom20 (1-33) were cloned into the BamHI site of the pC4-RHE vector and the EcoRI and XbaI sites of pC4M-F2E vectors, respectively (ARIAD Pharmaceuticals). The rapamycin analogue AP21967 was obtained from ARIAD Pharmaceuticals. The PARL shRNA construct targeting (5′ […] 3′) is in the pSuper-GFP vector (OligoEngine).
(§3) Confocal microscopy of fixed samples, scoring of Parkin recruitment and Parkin-induced mitophagy, and live cell imageing were performed as described previously (Narendra (2008) J Cell Biol 183: 795-803). Experiments in Mfn1/2 null cells were performed as described previously with minor modifications described in the supplemental methods (Narendra (2008) J Cell Biol 183: 795-803).

[2] = system: PINK1+/+ or PINK1−/− MEFs; test: Parkin-induced mitophagy in MEFs; assay type: cell-based, mouse; details: primary MEFs expressing YFP-Parkin, 20 μM CCCP, 24 hours; PINK1+/+ (CCCP line) or PINK−/− reconstituted with PINK1
Source text: as §1
Confocal microscopy of fixed samples, scoring of Parkin recruitment and Parkininduced mitophagy, and live cell imaging were performed as described previously (Narendra (2008) J Cell Biol 183: 795-803). Experiments in Mfn1/2 null cells were performed as described previously with minor modifications. […]

HeLa cells [3] = test: Live cell imaging, time to Parkin translocation; assay type: cell-based; details: mCherry-Parkin alone (CCCP line) or with PINK1-YFP 1:1, 10 μM CCCP
Experimental: FIGS. 13A-13D show the kinetics of Parkin recruitment are modulated by PINK1 expression. […] The cells were imaged live following the addition of 10 μM CCCP in serum at time point 0 min FIG. 13B lists the vectors used for transfection of HeLa cells with mCherry-Parkin and the indicated construct in a 1:1 ratio were treated as in (A) and imaged live (1 frame/minute) following the addition of CCCP. Time to the beginning of Parkin translocation was defined as the first appearance of puncta in ≧2 quandrants of the cell for ≧2 consecutive images for ≧6 cells in ≧3 independent experiments. […] Cells were loaded with TMRE (red) to stain polarized mitochondria. Cells were not treated with CCCP. Scale bars in last image=10 μm. FIG. 13D is a graph that quantitates results in cells treated as described in FIG. 13C, which were scored for co-localization between YFP-Parkin and TMRE. ≧50 cells/experiment were scored in ≧3 independent experiments.
as §3

HeLa cells [4] = test: Parkin-induced mitophagy, loss of mitochondria by immunocytochemistry; assay type: cell-based
Experimental: Cultured cells seeded in borosilicate chamber slides (Thermo Fisher Scientific) were transfected or cotransfected with YFP-Parkin, ECFP-Parkin, mCherry-Parkin, DsRed-Mito (Clontech Laboratories, Inc.), pcDNA3.1 (Invitrogen), vMIA, and/or Drp1K38A constructs using Fugene 6 (Roche). Parkin-myc was a gift from M. Cookson (National Institutes of Health, Bethesda, Md.). Cells were fixed 12-24 hours after transfection with 4% paraformaldehyde in PBS. Cells were stained with following primary antibodies: mouse monoclonal cytochrome c (BD), rabbit polyclonal Tom20 (Santa Cruz Biotechnology, Inc.), mouse monoclonal Parkin PRK8 (Santa Cruz Biotechnology, Inc.), rabbit polyclonal PMP70 (Invitrogen), and/or mouse monoclonal TRAP1 (Abcam); and with the following secondary antibodies: mouse and/or rabbit Alexa 488, 594, and 633 (Invitrogen). For assessment of mitochondrial membrane potential, cells were pulsed with 50 nM Mito-Tracker red (Invitrogen) for 15 min, washed, and incubated for an additional 10 minutes before fixation or imaging. For assessment of cell metabolic potential, cell nuclei were stained with Hoechst 33342 (Invitrogen).
as §2, §3

Molecule | YFP-Parkin recruited to mitochondria, % of cells ([1]; PINK1+/+ primary MEFs, 20 μM CCCP, 3 hours) [%] | Parkin recruited to mitochondria, % of cells ([1]; SV40 transformed PINK1+/+ MEFs) [%] | cells with no detectable mitochondria [2] [%] | time to translocation of Parkin (HeLa cells [3]) [min] | cells with no mitochondria (HeLa cells [4]; HeLa, co-transfection with Parkin, 96 hours, absence of CCCP) [%] | reconstitution of YFP-Parkin recruitment ([1]; PINK1−/− primary MEFs co-transfected with construct, 20 μM CCCP, 3 hours) | YFP-Parkin recruited to mitochondria, % of cells ([1]; PINK1−/− primary MEFs expressing the PINK1 construct, 20 μM CCCP, 3 hours) [%] | Parkin recruited to mitochondria, % of cells ([1]; SV40 transformed PINK1−/− MEFs with exogenous construct) [%] | cells with no mitochondria (HeLa cells [4]; HeLa expressing YFP-Parkin variant, CCCP 24 hours) [%] | mitochondrial mass in Parkin-expressing cells (HeLa cells [4]; HeLa, 10 μM CCCP, 12 hours) | mitochondria detectable in Parkin-expressing cells (Tom20, cytochrome c, TRAP1) (HeLa cells [4]; HeLa, 10 μM CCCP, 48 hours)
N#CC(C#N)=NNc1cccc(Cl)c1 [CCCP, carbonyl cyanide m-chlorophenylhydrazone] | 43.3±8.1 | 60.7±7.7 | 66.1±16.8 | 32.0 ± 5.4 |  |  |  |  |  |  | 
PINK1: exogenously expressed wild type PINK1 (V5 or myc tagged) (protein, UniProt Q9BXM7 78-581, looked up, V5 or myc tag) Serine/threonine-protein …: AARLQRQFVVRAWGCAGPCGRAVFLAFGLGLGLIEEKQAESRRAVSACQEIQAIFTQKSKPGPDPLDTRRLQGFRLEEYLIGQSIGKGCSAAVYEATMPTLPQNLEVTKSTGLLPGRGPGTSAPGEGQERAPGAPAFPLAIKMMWNISAGSSSEAILNTMSQELVPASRVALAGEYGAVTYRKSKRGPKQLAPHPNIIRVLRAFTSSVPLLPGALVDYPDVLPSRLHPEGLGHGRTLFLVMKNYPCTLRQYLCVNTPSPRLAAMMLLQLLEGVDHLVQQGIAHRDLKSDNILVELDPDGCPWLVIADFGCCLADESIGLQLPFSSWYVDRGGNGCLMAPEVSTARPGPRAVIDYSKADAWAVGAIAYEIFGLVNPFYGQGKAHLESRSYQEAQLPALPESVPPDVRQLVRALLQREASKRPSARVAANVLHLSLWGEHILALKNLKLDKMVGWLLQQSAATLLANRLTEKCCVETKMKMLFLANLECETLCQAALLLCSWRAAL |  |  | 65.5±5.0 | 5.0 ± 1.5 | 42.1±7.3 | reconstituted | 78.6±3.9 | 72.8±7.7 |  |  | 
YFP-Parkin: YFP-tagged Parkin E3 ligase expressed from a transfected vector (protein, UniProt O60260 1-465, looked up, YFP fusion, YFP-tagged Parkin E3 ligase expressed from a transfected vector) E3 ubiquitin-protein ligase …: MIVFVRFNSSHGFPVEVDSDTSIFQLKEVVAKRQGVPADQLRVIFAGKELRNDWTVQNCDLDQQSIVHIVQRPWRKGQEMNATGGDDPRNAAGGCEREPQSLTRVDLSSSVLPGDSVGLAVILHTDSRKDSPPAGSPAGRSIYNSFYVYCKGPCQRVQPGKLRVQCSTCRQATLTLTQGPSCWDDVLIPNRMSGECQSPHCPGTSAEFFFKCGAHPTSDKETSVALHLIATNSRNITCITCTDVRSPVLVFQCNSRHVICLDCFHLYCVTRLNDRQFVHDPQLGYSLPCVAGCPNSLIKELHHFRILGEEQYNRYQQYGAEECVLQMGGVLCPRPGCGAGLLPEPDQRKVTCEGGNGLGCGFAFCRECKEAYHEGECSAVFEASGTTTQAYRVDERAAEQARWEAASKETIKKTTKPCPRCHVPVEKNGGCMHMKCPQPQCRLEWCWNCGCEWNRVCMGDHWFDV |  |  |  |  |  |  |  |  | 59.0±15.1 | grossly reduced | no mitochondria remained detectable
